Laboratory results: the RNAGym collection of RNA variant scans (doi:10.1021/acssynbio.7b00057)

B1: Pistol ribozyme (parent)
chain: GGGUCGUUGUUCCAUAAUCGCGUGGAUAUGGCACGCAAGUUUCUACCGGGCACCGUAAAUGUCCGACUGGAGCCGUUCGGGCGGCUAUAAACAGACCUCAGGCCCGAAGCGUGGCGGCACCUGCCGCCGGUGGUAAAAAAGAUCGGAAGAGCACACGUCU

Variants of: B1
Experiment: aptazyme ON/OFF ratio, guanine; higher = stronger switching; co-transcriptional cleavage with and without guanine

| Variant | aptazyme ON/OFF ratio |
| --- | --- |
| U7C U8C U11G C12G | 1.33 |
| U7G U8C G9U U11A | 1.8 |
| U8C U10C U11A C13G | 1.23 |
| U7G U8A U10G U11G C13A | 1.28 |
| U8A U10C U11C C12A C13U | 1.07 |
| U8G U10C U11C C12U C13U | 1.09 |
| U8G G9A U10G U11C C13G | 1.05 |
| U7C U8G U10G U11G C12A C13A | 1.11 |
| U7C U8A U10C C12A C13G | 1.07 |
| U7A U8G G9A U11G C12U | 1.36 |
| U7C U8C G9A U10C U11C C12A C13U | 1.31 |
| U7A U8G G9A U10G C12A | 1.24 |
| U11G C12U C13A | 1.1 |
| U8C G9U U10C U11A C12G C13A | 1.08 |
| U7G U8G G9A U10G U11G C12G | 1.3 |
| U7A G9C U10A U11A C12A | 1.06 |
| G9A U10G C13U | 1.52 |
| U7A G9A U11C C12U C13G | 1.27 |
| U7C U8A G9C U10G U11A C12A C13G | 1.13 |
| U7C G9C U10A U11A C13G | 1.05 |
| U7A G9U U10C C13G | 1.02 |

| Variant | aptazyme ON/OFF ratio |
| --- | --- |
| U7G G9C U10A U11G C12U C13A | 1.18 |
| U7C U8A G9U U11G C12U C13U | 1.24 |
| U7G U8A G9U U10A C12U C13A | 1.07 |
| U7G U8C G9U U10G U11C C13U | 1.18 |
| U7G U8G G9A U10G U11G C12A | 1.21 |
| U7C U8A U11G C12U | 1.3 |
| U7A U8C G9A U10C U11G C12A C13A | 1.12 |
| U7G U8G G9A U10C C12G C13G | 1.16 |
| U7G G9U U10G C12G | 1.36 |
| U7C U8G U10A C12U C13A | 1.13 |
| U7A U8G G9A U10A C13A | 1.41 |
| U7A G9A U10G U11C C12U | 1.08 |
| U7A U8A U10A U11A C12A C13A | 1.12 |
| U7G U8C G9A U10G U11A C12U C13G | 1.09 |
| U7C G9U U10G U11G C12G C13A | 1.13 |
| U7G U10C U11C C12U C13U | 1.09 |
| U7C U8A G9C C12A C13G | 1.05 |
| U7A G9A U10C U11A C12A C13A | 1.2 |
| U7G U8A G9C U10A U11G C13G | 1.05 |
| U7G U8C G9C U10A U11A C12U | 1.16 |
| U7G U8C G9U C12G C13A | 1.18 |

| Variant | aptazyme ON/OFF ratio |
| --- | --- |
| U7G U8A C12U C13G | 1.38 |
| U7G U8A G9C U10C U11A C12U C13U | 1.03 |
| U7A U8C G9A U10G C12U C13G | 1.18 |
| U7G U8G G9A U10A U11G C12U | 1.22 |
| U8A U10C U11G C13U | 1.19 |
| U7A U8C U10C U11A C12U C13A | 1.21 |
| U7C U8C G9C U10G C12U | 1.2 |
| U8C G9A C13A | 1.22 |
| U7A U8C G9C U10A U11G C12A C13G | 1.12 |
| U7A U8A G9U U10G U11G C12A | 1.13 |
| U7G U8G U11C C12A | 1.31 |
| U7C U8A U11C C12G C13A | 1.3 |
| U7A U8G G9C U11C C12A | 2.15 |
| U7A G9A U10G U11C C12A C13U | 1.11 |
| U8G G9A U11G | 1.18 |
| U7A U8C U11A C12A C13G | 1.16 |
| U8G G9U U11C C12U C13A | 1.06 |
| U7G U8A U10A C12U C13G | 1.28 |
| U8G U10G U11C C12U | 1.02 |
| U7A U8G U11A | 1.49 |
| U7C G9A U10A U11G C13G | 1.02 |

| Variant | aptazyme ON/OFF ratio |
| --- | --- |
| U7C U8A G9C U10C C12A C13A | 1.05 |
| U7G U8A G9A U10G C12A | 1.32 |
| U8A G9A U10G U11A C12G C13U | 1.12 |
| U7G U8C G9U U10C U11A C12U C13A | 1.72 |
| U7G U8C G9A U10G U11C C12A C13A | 1.15 |
| U7A U10G U11C C12G C13G | 1.11 |
| U8G G9C C12U C13G | 1.04 |
| U8A G9A U10C U11G C13U | 1.17 |
| U7C U8A G9A U10C U11G C12U C13G | 1.27 |
| U7G U8G G9A U10G U11A C13U | 1.12 |
| U7C G9A U10G U11C | 1.08 |
| G9A U10C C12G | 1.32 |
| U7C U8C G9C U10G C12A C13A | 1.1 |
| U7G G9C U10A U11G C12G | 1.41 |
| U8A G9C U10A U11G C12G C13G | 1.16 |
| U10C U11A C12A C13U | 1.35 |
| U8G G9A U10C U11C C13A | 0.984 |
| U7A U8C U10G U11C C12A C13A | 1.34 |
| U10A U11G C12A C13G | 1.23 |
| U8G U10G U11C C12U C13A | 1.06 |
| U7G G9A U10G U11C C12A C13G | 1.06 |
